The text below walks through data of patent US20170066831A1 (Janssen / Centocor, published 2017).

Assay [1] addresses T1, human ST2L extracellular domain with C-terminal His6 tag (human, UniProt Q01638 19-328).
T1 construct: also called huST2L-ECD; ST2L-ECD
T1 sequence: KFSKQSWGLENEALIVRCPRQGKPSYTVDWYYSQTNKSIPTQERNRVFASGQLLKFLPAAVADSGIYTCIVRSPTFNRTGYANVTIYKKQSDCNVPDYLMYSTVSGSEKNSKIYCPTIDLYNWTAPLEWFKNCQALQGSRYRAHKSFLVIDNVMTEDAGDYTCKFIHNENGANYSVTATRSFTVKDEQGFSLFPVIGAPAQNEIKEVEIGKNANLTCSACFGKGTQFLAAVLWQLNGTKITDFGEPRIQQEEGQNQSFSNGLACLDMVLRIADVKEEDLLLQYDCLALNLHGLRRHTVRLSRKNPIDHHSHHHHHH
Kind of assay: immunosorbent assay with ECL detection, human-mouse domain-swap constructs. How it is done:
(§1) Antibody binding to ST2L domain I, II and III was determined using standard capture ELISA assay using electrochemiluminescent detection format (Meso-Scale Discovery (MSD) technology). 10 μg/mL of each antibody was coated onto each well of an MSD HighBind plate (5 μL/well) for 2 hr at room temperature. […] The plate was covered with aluminum foil and incubated for 1 hr at room temperature with gentle shaking. The plate was then washed 3 times with HEPES wash buffer. MSD read buffer (150 μl) was added to each well, and the plate was then read using an MSD Sector Imager 6000.

For assay [2], the target named is T2, mouse ST2L extracellular domain (mouse, UniProt P14719 28-326).
T2 construct: also called mouse ST2L-ECD; muST2L-ECD
T2 sequence: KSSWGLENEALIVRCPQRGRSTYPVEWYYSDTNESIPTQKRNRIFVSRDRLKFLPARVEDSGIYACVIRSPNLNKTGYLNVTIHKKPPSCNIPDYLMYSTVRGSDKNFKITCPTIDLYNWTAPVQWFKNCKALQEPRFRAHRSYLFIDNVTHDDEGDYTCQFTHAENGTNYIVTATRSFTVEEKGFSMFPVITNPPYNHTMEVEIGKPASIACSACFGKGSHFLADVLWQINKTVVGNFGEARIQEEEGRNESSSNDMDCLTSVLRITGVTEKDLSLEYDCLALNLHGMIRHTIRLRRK
The assay is described as above. How it is done: as §1

B1: CNTO3914 (antibody, mouse IgG1, V domains shown)
VH: EVQLVESGGGLLQPGRSLKLSCTASGFIFSHYGMAWVRQAPTKGLEWVSSIITDGTSTYYRDSVKGRFTISRDNAKNTQYLQMDSLRSEDTATYYCARQSDDYFDYWGQGVMVTVSS
VL: DVVLTQTPVSLSVTLGDQASISCKSSQSLEYSDGDSYLEWYLQKPGQSPQLLIYGVSNRFSGVPDRFIGSGSGTDFTLKISRVEPEDLGVYYCFQATHDPFTFGSGTKLEIK
notes: Rat hybridoma C1999 V regions cloned into mouse IgG1 background; also called C1999
For B1, the binding result in assay [1] is on record as “no binding”; in assay [2] it was “binds”.
